Results from publication PMC11931385, “Structural and functional analysis of cancer-associated missense variants in the retinoblastoma protein pocket domain” (The Journal of Biological Chemistry, 2025).
No end group written: not given here. TMR = tetramethyl rhodamine dye

How the values were obtained:
Experiment in all cases: fluorescence polarisation; 37 °C, after the 25 °C reading ramped over 7 min to 37 °C and 2 min incubation; unlabeled Rb^P against 1.5 nM TMR-E2F1^TD or 7.5 nM TMR-E7^LxCxE; 25 mM Tris pH 8.0, 200 mM NaCl, 1 mM DTT, 0.1% Tween-20; apparent Kd
Conditions in all cases: both partners purified
Rb^P R741C = target: T1, Rb^P R741C (human, UniProt P06400 380-788, R741C)
T1 construct: also called variant 68
T1 sequence (looked up): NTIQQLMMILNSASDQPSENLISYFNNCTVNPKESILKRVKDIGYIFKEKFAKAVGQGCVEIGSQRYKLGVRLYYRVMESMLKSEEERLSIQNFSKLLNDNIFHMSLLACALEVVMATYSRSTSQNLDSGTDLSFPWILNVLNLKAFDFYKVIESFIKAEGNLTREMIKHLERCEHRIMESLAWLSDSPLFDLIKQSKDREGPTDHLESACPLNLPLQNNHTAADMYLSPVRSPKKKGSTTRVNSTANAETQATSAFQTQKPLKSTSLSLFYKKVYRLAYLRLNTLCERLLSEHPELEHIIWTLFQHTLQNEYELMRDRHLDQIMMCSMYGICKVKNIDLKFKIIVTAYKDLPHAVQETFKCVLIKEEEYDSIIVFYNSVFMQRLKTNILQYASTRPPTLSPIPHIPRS

Rb^P K530I = target: T2, Rb^P K530I (human, UniProt P06400 380-788, K530I)
T2 construct: also called variant 21
T2 sequence (looked up): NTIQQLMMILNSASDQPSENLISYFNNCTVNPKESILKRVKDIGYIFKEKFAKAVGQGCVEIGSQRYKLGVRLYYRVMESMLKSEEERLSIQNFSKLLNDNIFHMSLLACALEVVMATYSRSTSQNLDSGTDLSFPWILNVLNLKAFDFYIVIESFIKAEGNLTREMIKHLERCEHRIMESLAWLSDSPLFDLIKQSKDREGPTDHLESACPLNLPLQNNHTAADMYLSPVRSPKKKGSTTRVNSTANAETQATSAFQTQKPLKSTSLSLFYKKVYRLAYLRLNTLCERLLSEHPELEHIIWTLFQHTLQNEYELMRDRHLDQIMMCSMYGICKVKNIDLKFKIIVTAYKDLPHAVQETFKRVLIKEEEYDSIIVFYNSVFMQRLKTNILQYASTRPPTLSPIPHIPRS

Rb^P K462T = target: T3, Rb^P K462T (human, UniProt P06400 380-788, K462T)
T3 construct: also called variant 9
T3 sequence (looked up): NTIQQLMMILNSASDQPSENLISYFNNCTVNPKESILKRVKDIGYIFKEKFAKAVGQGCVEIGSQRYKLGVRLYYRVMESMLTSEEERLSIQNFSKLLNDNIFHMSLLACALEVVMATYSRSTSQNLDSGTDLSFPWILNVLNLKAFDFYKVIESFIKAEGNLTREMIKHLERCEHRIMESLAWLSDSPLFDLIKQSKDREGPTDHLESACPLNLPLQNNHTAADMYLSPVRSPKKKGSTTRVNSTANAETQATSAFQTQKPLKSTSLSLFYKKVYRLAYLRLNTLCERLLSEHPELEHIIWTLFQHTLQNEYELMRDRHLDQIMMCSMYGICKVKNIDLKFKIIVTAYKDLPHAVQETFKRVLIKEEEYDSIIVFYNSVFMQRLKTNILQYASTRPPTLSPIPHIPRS

Rb^P A525G = target: T4, Rb^P A525G (human, UniProt P06400 380-788, A525G)
T4 construct: also called variant 20
T4 sequence (looked up): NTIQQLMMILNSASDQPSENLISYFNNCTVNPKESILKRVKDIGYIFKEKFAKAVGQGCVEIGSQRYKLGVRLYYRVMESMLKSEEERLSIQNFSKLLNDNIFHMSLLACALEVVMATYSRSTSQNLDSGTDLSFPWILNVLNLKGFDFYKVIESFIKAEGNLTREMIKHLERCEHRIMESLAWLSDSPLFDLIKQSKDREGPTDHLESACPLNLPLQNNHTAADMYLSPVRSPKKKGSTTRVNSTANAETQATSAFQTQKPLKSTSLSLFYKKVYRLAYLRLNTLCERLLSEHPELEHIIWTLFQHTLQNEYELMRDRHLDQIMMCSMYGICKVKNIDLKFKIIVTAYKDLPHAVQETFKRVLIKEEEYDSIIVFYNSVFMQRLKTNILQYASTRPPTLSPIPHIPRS

Rb^P R656Q = target: T5, Rb^P R656Q (human, UniProt P06400 380-788, R656Q)
T5 construct: also called variant 48
T5 sequence (looked up): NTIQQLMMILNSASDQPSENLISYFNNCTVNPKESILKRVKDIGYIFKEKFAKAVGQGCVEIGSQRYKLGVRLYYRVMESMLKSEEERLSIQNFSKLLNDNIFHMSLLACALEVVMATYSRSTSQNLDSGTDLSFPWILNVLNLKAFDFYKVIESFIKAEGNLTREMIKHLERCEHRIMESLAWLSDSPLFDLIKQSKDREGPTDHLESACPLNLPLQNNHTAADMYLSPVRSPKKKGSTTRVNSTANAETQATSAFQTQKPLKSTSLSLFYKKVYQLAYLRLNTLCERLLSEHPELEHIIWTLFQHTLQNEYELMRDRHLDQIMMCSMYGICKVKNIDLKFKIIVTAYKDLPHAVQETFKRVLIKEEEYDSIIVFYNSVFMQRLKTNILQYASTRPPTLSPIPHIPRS

B1: TMR-E2F1^TD, peptide of the E2F1 transactivation domain (peptide)
peptide: {TMR}-GEGIRDLFDCDFGDLTPLD
notes: also called E2F^TD; source: synthetic peptide, bought: GenScript
B1 showed a Kd (Rb^P R741C) of 0.064 µM, a Kd (Rb^P K530I) of 1.68 µM and a Kd (Rb^P K462T) of 0.051 µM. For the same binder, the Kd (Rb^P A525G) was 0.065 µM and the Kd (Rb^P R656Q) was 0.325 µM.

B2: TMR-E7^LxCxE, LxCxE peptide of the E7 oncoprotein from HPV (peptide)
peptide: DLYCYEQLN
modifications: also: TMR label, position not given here
notes: source: synthetic peptide, bought: GenScript
B2 gave a Kd (Rb^P R741C) of 0.023 µM, a Kd (Rb^P K530I) of 0.02 µM and a Kd (Rb^P K462T) of 0.016 µM. For the same binder, the Kd (Rb^P A525G) was 0.052 µM and the Kd (Rb^P R656Q) was 0.014 µM.
